# Measured values reported in patent US20170121398A1 (PROTHENA BIOSCIENCES, published 2017).
# B1: mouse antibody 6C1 (antibody, IgG1, V domains shown)
# VH: EVQLVESGGGLVQPGGSLKLSCAASGFTFSNYYMSWVRQTPEKRLEWVAYISIDGNNIYHPDSVKGRFTISRDNAKNTLYLQMSSLKSEDTAMYYCARDSDYGYFDVWGTGTTVTVSS
# VL: DVLMTQTPLSLPVSLGDQASISCRSSQSIVHSNGNTYLEWYLQKRGQSPKLLIYKVSKRFSGVPDRFSGSGSGTDFILKISRVEAEDLGVYYCFQGSHVPLTFGGGTKLELK
# notes: also called m6C1; mis-TTR mAb 6C1
# Target: pH4.0-treated TTR (human, UniProt P02766 21-147)
# Test: ELISA, pH4-treated TTR-His captured on an anti-His coat, anti-mouse HRP detection, OD450
binder,measurement,value
B1,EC50 (read off the curve),~0.2 µg/mL
